The text below walks through data of patent US20180155451A1 (published 2018).

T1: FcγRIIb extracellular domain with C-terminal His tag (human, UniProt P31994 43-217)
T1 construct: extracellular domain; Expressed in FreeStyle293 cells; used as analyte in Biacore; also called FcgRIIb; 2b; not shown: C-terminal His tag
T1 sequence (looked up): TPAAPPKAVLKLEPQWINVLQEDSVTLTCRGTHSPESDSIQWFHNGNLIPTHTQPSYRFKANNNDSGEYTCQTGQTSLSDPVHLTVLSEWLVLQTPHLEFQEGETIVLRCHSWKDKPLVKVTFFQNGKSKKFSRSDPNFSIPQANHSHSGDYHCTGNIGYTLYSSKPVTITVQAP

B1: GpH7-B3 variant L328_03V/GpL16-k0 (Ho Ab) (antibody, human IgG1, kappa)
heavy: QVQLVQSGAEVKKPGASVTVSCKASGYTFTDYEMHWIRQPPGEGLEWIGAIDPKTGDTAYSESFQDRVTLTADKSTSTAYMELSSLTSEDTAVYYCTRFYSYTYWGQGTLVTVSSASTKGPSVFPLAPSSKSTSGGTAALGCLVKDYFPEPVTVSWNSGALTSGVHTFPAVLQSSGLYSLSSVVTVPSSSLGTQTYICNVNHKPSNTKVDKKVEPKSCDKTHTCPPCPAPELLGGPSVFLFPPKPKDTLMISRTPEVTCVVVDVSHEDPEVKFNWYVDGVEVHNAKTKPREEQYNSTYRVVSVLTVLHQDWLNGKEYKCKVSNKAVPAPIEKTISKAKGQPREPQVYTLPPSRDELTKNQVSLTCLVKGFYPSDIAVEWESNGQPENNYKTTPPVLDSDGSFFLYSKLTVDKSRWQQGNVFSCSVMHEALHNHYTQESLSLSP
light: DIVMTQSPLSLPVTPGEPASISCQASESLVHSNRNTYLHWYLQKPGQSPQLLIYKVSNRFSGVPDRFSGSGSGTDFTLKISRVEAEDVGVYYCSQNTHVPPTFGQGTKVEIERTVAAPSVFIFPPSDEQLKSGTASVVCLLNNFYPREAKVQWKVDNALQSGNSQESVTEQDSKDSTYSLSSTLTLSKADYEKHKVYACEVTHQGLSSPVTKSFNRGEC
notes: Substitution in both H chains; position in EU numbering; also called L328V homodimerized antibody
B2: GpH7-B3 variant L328_04F/GpL16-k0 (Ho Ab) (antibody, human IgG1, kappa)
heavy: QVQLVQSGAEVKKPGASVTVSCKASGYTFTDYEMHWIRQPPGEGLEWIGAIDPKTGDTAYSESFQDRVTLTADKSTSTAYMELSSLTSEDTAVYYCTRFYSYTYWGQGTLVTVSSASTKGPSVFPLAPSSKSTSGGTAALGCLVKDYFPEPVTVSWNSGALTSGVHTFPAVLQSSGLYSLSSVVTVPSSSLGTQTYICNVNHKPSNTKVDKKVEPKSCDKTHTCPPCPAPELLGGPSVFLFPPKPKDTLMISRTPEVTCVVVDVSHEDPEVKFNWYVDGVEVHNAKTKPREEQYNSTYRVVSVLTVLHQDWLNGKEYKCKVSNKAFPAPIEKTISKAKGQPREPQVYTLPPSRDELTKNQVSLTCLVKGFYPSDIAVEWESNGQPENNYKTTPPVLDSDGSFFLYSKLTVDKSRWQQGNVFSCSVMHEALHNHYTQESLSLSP
light: DIVMTQSPLSLPVTPGEPASISCQASESLVHSNRNTYLHWYLQKPGQSPQLLIYKVSNRFSGVPDRFSGSGSGTDFTLKISRVEAEDVGVYYCSQNTHVPPTFGQGTKVEIERTVAAPSVFIFPPSDEQLKSGTASVVCLLNNFYPREAKVQWKVDNALQSGNSQESVTEQDSKDSTYSLSSTLTLSKADYEKHKVYACEVTHQGLSSPVTKSFNRGEC
notes: Substitution in both H chains; position in EU numbering; also called L328F homodimerized antibody
B3: GpH7-B3 variant L328_07I/GpL16-k0 (Ho Ab) (antibody, human IgG1, kappa)
heavy: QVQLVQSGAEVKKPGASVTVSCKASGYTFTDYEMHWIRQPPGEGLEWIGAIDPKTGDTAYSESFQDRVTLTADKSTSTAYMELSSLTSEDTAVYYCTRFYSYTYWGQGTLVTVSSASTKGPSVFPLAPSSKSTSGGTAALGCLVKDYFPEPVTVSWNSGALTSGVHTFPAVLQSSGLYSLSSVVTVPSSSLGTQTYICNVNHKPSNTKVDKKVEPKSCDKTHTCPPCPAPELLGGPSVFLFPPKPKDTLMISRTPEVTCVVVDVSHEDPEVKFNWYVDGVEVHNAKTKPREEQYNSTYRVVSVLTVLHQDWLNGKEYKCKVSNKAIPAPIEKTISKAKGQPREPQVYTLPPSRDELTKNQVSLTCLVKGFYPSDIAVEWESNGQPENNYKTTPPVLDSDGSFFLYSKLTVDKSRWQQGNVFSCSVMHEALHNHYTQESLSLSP
light: DIVMTQSPLSLPVTPGEPASISCQASESLVHSNRNTYLHWYLQKPGQSPQLLIYKVSNRFSGVPDRFSGSGSGTDFTLKISRVEAEDVGVYYCSQNTHVPPTFGQGTKVEIERTVAAPSVFIFPPSDEQLKSGTASVVCLLNNFYPREAKVQWKVDNALQSGNSQESVTEQDSKDSTYSLSSTLTLSKADYEKHKVYACEVTHQGLSSPVTKSFNRGEC
notes: Substitution in both H chains; position in EU numbering; also called L328I homodimerized antibody
B4: GpH7-B3 variant K334_19Q/GpL16-k0 (Ho Ab) (antibody, human IgG1, kappa)
heavy: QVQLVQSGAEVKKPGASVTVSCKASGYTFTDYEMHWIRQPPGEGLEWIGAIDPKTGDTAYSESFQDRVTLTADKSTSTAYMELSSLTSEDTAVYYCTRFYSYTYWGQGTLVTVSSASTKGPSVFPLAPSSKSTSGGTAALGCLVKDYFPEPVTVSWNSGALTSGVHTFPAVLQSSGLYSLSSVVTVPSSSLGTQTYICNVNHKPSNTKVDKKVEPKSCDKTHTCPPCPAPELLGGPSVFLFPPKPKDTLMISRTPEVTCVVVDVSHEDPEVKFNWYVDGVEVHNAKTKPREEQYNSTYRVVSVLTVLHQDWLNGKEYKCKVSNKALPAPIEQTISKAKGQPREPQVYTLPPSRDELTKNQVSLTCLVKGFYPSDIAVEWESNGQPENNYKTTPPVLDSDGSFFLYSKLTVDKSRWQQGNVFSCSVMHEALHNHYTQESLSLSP
light: DIVMTQSPLSLPVTPGEPASISCQASESLVHSNRNTYLHWYLQKPGQSPQLLIYKVSNRFSGVPDRFSGSGSGTDFTLKISRVEAEDVGVYYCSQNTHVPPTFGQGTKVEIERTVAAPSVFIFPPSDEQLKSGTASVVCLLNNFYPREAKVQWKVDNALQSGNSQESVTEQDSKDSTYSLSSTLTLSKADYEKHKVYACEVTHQGLSSPVTKSFNRGEC
notes: Substitution in both H chains; position in EU numbering; also called K334Q homodimerized antibody
B5: GpH7-B3 variant K334_15Y/GpL16-k0 (Ho Ab) (antibody, human IgG1, kappa)
heavy: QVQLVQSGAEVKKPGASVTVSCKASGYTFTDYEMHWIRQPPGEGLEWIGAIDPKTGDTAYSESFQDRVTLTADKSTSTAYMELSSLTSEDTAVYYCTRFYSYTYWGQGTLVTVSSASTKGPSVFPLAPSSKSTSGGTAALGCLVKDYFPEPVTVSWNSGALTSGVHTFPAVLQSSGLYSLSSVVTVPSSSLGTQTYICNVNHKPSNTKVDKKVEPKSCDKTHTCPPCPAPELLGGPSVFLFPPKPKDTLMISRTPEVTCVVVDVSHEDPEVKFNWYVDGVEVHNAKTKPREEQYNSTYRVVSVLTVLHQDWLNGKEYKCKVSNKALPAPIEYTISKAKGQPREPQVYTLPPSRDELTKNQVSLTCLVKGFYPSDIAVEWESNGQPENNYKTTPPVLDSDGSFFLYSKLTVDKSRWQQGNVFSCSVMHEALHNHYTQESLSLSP
light: DIVMTQSPLSLPVTPGEPASISCQASESLVHSNRNTYLHWYLQKPGQSPQLLIYKVSNRFSGVPDRFSGSGSGTDFTLKISRVEAEDVGVYYCSQNTHVPPTFGQGTKVEIERTVAAPSVFIFPPSDEQLKSGTASVVCLLNNFYPREAKVQWKVDNALQSGNSQESVTEQDSKDSTYSLSSTLTLSKADYEKHKVYACEVTHQGLSSPVTKSFNRGEC
notes: Substitution in both H chains; position in EU numbering; also called K334Y homodimerized antibody
B6: GpH7-B3 variant L328_06M/GpL16-k0 (Ho Ab) (antibody, human IgG1, kappa)
heavy: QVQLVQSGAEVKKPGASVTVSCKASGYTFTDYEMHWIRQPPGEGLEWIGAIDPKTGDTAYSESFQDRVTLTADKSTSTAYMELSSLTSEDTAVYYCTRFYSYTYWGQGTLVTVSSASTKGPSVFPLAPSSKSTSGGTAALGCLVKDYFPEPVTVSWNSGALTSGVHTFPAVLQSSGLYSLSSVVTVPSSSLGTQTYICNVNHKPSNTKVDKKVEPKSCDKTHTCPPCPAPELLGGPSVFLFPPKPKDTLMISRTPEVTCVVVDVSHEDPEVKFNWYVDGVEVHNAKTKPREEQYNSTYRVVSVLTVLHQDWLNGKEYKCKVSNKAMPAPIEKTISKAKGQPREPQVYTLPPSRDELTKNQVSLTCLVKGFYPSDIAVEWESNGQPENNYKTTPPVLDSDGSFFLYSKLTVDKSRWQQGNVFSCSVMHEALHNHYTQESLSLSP
light: DIVMTQSPLSLPVTPGEPASISCQASESLVHSNRNTYLHWYLQKPGQSPQLLIYKVSNRFSGVPDRFSGSGSGTDFTLKISRVEAEDVGVYYCSQNTHVPPTFGQGTKVEIERTVAAPSVFIFPPSDEQLKSGTASVVCLLNNFYPREAKVQWKVDNALQSGNSQESVTEQDSKDSTYSLSSTLTLSKADYEKHKVYACEVTHQGLSSPVTKSFNRGEC
notes: Substitution in both H chains; position in EU numbering; also called L328M homodimerized antibody
B7: GpH7-B3 variant K334_16H/GpL16-k0 (Ho Ab) (antibody, human IgG1, kappa)
heavy: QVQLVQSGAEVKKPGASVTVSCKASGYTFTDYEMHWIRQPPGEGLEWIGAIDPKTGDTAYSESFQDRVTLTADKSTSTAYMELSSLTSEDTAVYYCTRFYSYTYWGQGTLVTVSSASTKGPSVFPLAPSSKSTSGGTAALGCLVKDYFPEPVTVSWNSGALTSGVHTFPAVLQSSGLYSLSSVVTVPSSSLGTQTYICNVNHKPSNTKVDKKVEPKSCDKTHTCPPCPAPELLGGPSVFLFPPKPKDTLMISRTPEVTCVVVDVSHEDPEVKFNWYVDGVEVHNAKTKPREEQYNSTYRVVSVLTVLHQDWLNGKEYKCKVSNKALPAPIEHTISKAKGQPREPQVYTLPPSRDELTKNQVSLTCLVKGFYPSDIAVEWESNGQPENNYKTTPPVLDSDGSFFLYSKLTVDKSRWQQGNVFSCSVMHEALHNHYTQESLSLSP
light: DIVMTQSPLSLPVTPGEPASISCQASESLVHSNRNTYLHWYLQKPGQSPQLLIYKVSNRFSGVPDRFSGSGSGTDFTLKISRVEAEDVGVYYCSQNTHVPPTFGQGTKVEIERTVAAPSVFIFPPSDEQLKSGTASVVCLLNNFYPREAKVQWKVDNALQSGNSQESVTEQDSKDSTYSLSSTLTLSKADYEKHKVYACEVTHQGLSSPVTKSFNRGEC
notes: Substitution in both H chains; position in EU numbering; also called K334H homodimerized antibody
B8: GpH7-B3 variant K334_18N/GpL16-k0 (Ho Ab) (antibody, human IgG1, kappa)
heavy: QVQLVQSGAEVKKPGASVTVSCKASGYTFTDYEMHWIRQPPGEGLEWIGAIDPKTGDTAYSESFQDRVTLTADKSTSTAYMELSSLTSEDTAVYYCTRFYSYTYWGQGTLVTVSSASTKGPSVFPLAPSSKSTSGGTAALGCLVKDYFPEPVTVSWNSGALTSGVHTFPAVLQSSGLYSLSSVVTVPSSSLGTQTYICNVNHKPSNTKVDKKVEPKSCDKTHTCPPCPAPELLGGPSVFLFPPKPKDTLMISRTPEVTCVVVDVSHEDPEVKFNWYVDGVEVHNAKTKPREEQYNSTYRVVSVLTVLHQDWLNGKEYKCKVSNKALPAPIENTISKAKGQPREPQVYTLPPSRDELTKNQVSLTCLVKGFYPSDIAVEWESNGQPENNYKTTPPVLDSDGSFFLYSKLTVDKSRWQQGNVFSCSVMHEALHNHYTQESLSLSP
light: DIVMTQSPLSLPVTPGEPASISCQASESLVHSNRNTYLHWYLQKPGQSPQLLIYKVSNRFSGVPDRFSGSGSGTDFTLKISRVEAEDVGVYYCSQNTHVPPTFGQGTKVEIERTVAAPSVFIFPPSDEQLKSGTASVVCLLNNFYPREAKVQWKVDNALQSGNSQESVTEQDSKDSTYSLSSTLTLSKADYEKHKVYACEVTHQGLSSPVTKSFNRGEC
notes: Substitution in both H chains; position in EU numbering; also called K334N homodimerized antibody

This assay concerns the target T1, FcγRIIb extracellular domain with …. Nature of the assay: SPR (Biacore), antibody captured on antigen-peptide chip, FcgRIIb as analyte; binding relative to GpH7-B3/GpL16-k0 (HoCon Ab) = 100.
As to B1, the Ho/Con_2b is 135 % of control. Consider B2, for which the Ho/Con_2b was 241 % of control. For the molecule B3, the Ho/Con_2b was 188 % of control. The same measure for B4: 117 % of control. The same measure for B5: 126 % of control; for B6: 171 % of control. The same measure for B7: 124 % of control; for B8: 128 % of control.
